T1: human GLP-2 receptor (human, UniProt O95838 1-553)
T1 sequence (looked up): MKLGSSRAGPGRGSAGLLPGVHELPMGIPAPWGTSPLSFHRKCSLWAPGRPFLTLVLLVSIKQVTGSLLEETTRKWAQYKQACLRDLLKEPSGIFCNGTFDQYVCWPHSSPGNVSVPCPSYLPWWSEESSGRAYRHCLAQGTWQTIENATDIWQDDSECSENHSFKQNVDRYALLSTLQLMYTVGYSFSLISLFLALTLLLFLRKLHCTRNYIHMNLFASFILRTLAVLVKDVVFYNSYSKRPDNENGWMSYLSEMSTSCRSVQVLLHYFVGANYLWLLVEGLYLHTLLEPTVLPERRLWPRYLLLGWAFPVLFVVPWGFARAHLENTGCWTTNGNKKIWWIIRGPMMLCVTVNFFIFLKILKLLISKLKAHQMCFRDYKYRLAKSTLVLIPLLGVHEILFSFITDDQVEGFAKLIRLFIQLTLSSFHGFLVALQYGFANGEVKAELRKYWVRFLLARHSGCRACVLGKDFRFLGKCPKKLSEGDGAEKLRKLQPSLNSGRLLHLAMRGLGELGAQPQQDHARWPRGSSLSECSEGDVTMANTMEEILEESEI

B1: MG12-2 (bispecific fusion protein of Example 2) (Fc fusion)
chain 1: HGDGSFSDEMNTILDNLAARDFINWLIQTKITDGGGGSGGGGSGGGGSAKNTTAPATTRNTTRGGEEKKKEKEKEEQEERTHTCPPCPSHTQPLGVFLFPPKPKDTLMISRTPEVTCVVVDVSQEDPEVQFNWYVDGVEVHNAKTKPREEQFNSTYRVVSVLTVLHQDWLNGKEYKCKVSNKGLPSSIEKTISKAKGQPREPQVYTLPPCQEEMTKNQVSLWCLVKGFYPSDIAVEWESNGQPENNYKTTPPVLDSDGSFFLYSRLTVDKSRWQEGNVFSCSVMHEALHNHYTQKSLSLSLGK
chain 2: HGEGTFTSDVSSYLEGQAAKEFIAWLVKGRGGGGGSGGGGSGGGGSEKEKEEQEERTHTCPPCPSHTQPLGVFLFPPKPKDTLMISRTPEVTCVVVDVSQEDPEVQFNWYVDGVEVHNAKTKPREEQFNSTYRVVSVLTVLHQDWLNGKEYKCKVSNKGLPSSIEKTISKAKGQPREPQVCTLPPSQEEMTKNQVSLSCAVKGFYPSDIAVEWESNGQPENNYKTTPPVLDSDGSFFLVSRLTVDKSRWQEGNVFSCSVMHEALHNHYTQKSLSLSLGK
modifications: glycan linker (SEQ ID NO: 43) with N-glycosylation sites
B2: MG12-4 (bispecific fusion protein of Example 4) (Fc fusion)
chain 1: HGEGTFTSDVSSYLEGQAAKEFIAWLVKGGPSSGAPPPSGGGGGSGGGGSGGGGSAKNTTAPATTRNTTRGGEEKKKEKEKEEQEERTHTCPPCPSHTQPLGVFLFPPKPKDQLMISRTPEVTCVVVDVSQEDPEVQFNWYVDGVEVHNAKTKPREEQFNSTYRVVSVLTVLHQDWLNGKEYKCKVSNKGLPSSIEKTISKAKGQPREPQVYTLPPCQEEMTKNQVSLWCLVKGFYPSDIAVEWESNGQPENNYKTTPPVLDSDGSFFLYSRLTVDKSRWQEGNVFSCSVLHEALHNHYTQKSLSLSLGK
chain 2: HGDGSFSDEMNTILDNLAARDFINWLIQTKITDGGGGSGGGGSGGGGSEKEKEEQEERTHTCPPCPSHTQPLGVFLFPPKPKDQLMISRTPEVTCVVVDVSQEDPEVQFNWYVDGVEVHNAKTKPREEQFNSTYRVVSVLTVLHQDWLNGKEYKCKVSNKGLPSSIEKTISKAKGQPREPQVCTLPPSQEEMTKNQVSLSCAVKGFYPSDIAVEWESNGQPENNYKTTPPVLDSDGSFFLVSRLTVDKSRWQEGNVFSCSVLHEALHNHYTQKSLSLSLGK
modifications: glycan linker (SEQ ID NO: 43) with N-glycosylation sites
B3: MG12-1 (bispecific fusion protein of Example 1) (Fc fusion)
chain 1: HGEGTFTSDVSSYLEGQAAKEFIAWLVKGRGGGGGSGGGGSGGGGSAKNTTAPATTRNTTRGGEEKKKEKEKEEQEERTHTCPPCPSHTQPLGVFLFPPKPKDTLMISRTPEVTCVVVDVSQEDPEVQFNWYVDGVEVHNAKTKPREEQFNSTYRVVSVLTVLHQDWLNGKEYKCKVSNKGLPSSIEKTISKAKGQPREPQVYTLPPCQEEMTKNQVSLWCLVKGFYPSDIAVEWESNGQPENNYKTTPPVLDSDGSFFLYSRLTVDKSRWQEGNVFSCSVMHEALHNHYTQKSLSLSLGK
chain 2: HGDGSFSDEMNTILDNLAARDFINWLIQTKITDGGGGSGGGGSGGGGSEKEKEEQEERTHTCPPCPSHTQPLGVFLFPPKPKDTLMISRTPEVTCVVVDVSQEDPEVQFNWYVDGVEVHNAKTKPREEQFNSTYRVVSVLTVLHQDWLNGKEYKCKVSNKGLPSSIEKTISKAKGQPREPQVCTLPPSQEEMTKNQVSLSCAVKGFYPSDIAVEWESNGQPENNYKTTPPVLDSDGSFFLVSRLTVDKSRWQEGNVFSCSVMHEALHNHYTQKSLSLSLGK
modifications: glycan linker (SEQ ID NO: 43) with N-glycosylation sites
B4: MG12-5 (bispecific fusion protein of Example 5) (Fc fusion)
chain 1: HGEGTFTSDVSSYLEGQAAKEFIAWLVKGGPSSGAPPPSGGGGSGGGGSGGGGSEKEKEEQEERTHTCPPCPSHTQPLGVFLFPPKPKDQLMISRTPEVTCVVVDVSQEDPEVQFNWYVDGVEVHNAKTKPREEQFNSTYRVVSVLTVLHQDWLNGKEYKCKVSNKGLPSSIEKTISKAKGQPREPQVYTLPPCQEEMTKNQVSLWCLVKGFYPSDIAVEWESNGQPENNYKTTPPVLDSDGSFFLYSRLTVDKSRWQEGNVFSCSVLHEALHNHYTQKSLSLSLGK
chain 2: HGDGSFSDEMNTILDNLAARDFINWLIQTKITDGGGGSGGGGSGGGGSEKEKEEQEERTHTCPPCPSHTQPLGVFLFPPKPKDQLMISRTPEVTCVVVDVSQEDPEVQFNWYVDGVEVHNAKTKPREEQFNSTYRVVSVLTVLHQDWLNGKEYKCKVSNKGLPSSIEKTISKAKGQPREPQVCTLPPSQEEMTKNQVSLSCAVKGFYPSDIAVEWESNGQPENNYKTTPPVLDSDGSFFLVSRLTVDKSRWQEGNVFSCSVLHEALHNHYTQKSLSLSLGK

Key:
Assay in all cases: cell-based or functional assay
[1] = target: T1, human GLP-2 receptor
[2] = target: GLP-1 receptor
[3] = target: GLP-1 receptor; remark: listed apart in the source
[4] = target: T1, human GLP-2 receptor; remark: listed apart in the source
[5] = target: GLP-1 receptor; remark: listed apart in the source

Binder	EC50, GLP-2 activity (fluorescence spectroscopy) [1]	EC50, GLP-1 activity (luciferase reporter assay) [2]	EC50 (pM), cAMP luciferase reporter in GLP1R_cAMP/luc cells [3]	vs. GLP-1 relative activity (%) [3]	EC50 (nM), cAMP-gated CNG channel membrane potential dye fluorescence (Ft/F0) in Human GLP2R ACTOne cells [4]	vs. GLP-2 relative activity (%) [4]	fold reduction of GLP-1 activity (cAMP luciferase reporter) [5]
B1	44 nM	0.402 nM	–	–	–	–	–
B2	–	–	66 pM	39%	1.22 nM	48%	–
B3	–	–	304 pM	9%	1.35 nM	43%	~11 times
B4	–	–	75 pM	35%	0.99 nM	59%	–

Source: patent publication US20240368239A1 (SL METAGEN, published 2024)
